Measurements published in the supplement of paper PMC7125110.
± gives the standard error. For some of these results: Variants at the floor of the assay were thinned out.

B1: glmS ribozyme (parent)
chain: AUAAAAGCGCCAGAACUACAGAAAUGUAGUUGACGAGGAGGAGGUUUAUCGAAUUUUCGGCGGAUGCCUCCAAA

Experiments:
Settings in all cases: with glucosamine-6-phosphate
glucosamine-6-phosphate [1] = variants of: B1; assay: kcat; higher = faster cleavage; RNA array
Method in brief: (§1)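 Sequenced MiSeq chips were the platform: E. coli RNA polymerase transcribed barcoded ribozyme variants on them in situ, and a hybridised Cy3 probe tracked these at 37 °C. After glucosamine-6-phosphate (40 μM to 10 mM) in HEPES/KCl/Mg(OAc)2 buffer was flowed in, tiles were imaged over ~14 h. Signals normalised to baseline and to non-cleaving reference variants were reduced to per-tile medians and fit to one- or two-exponential decays to obtain kobs. kcat and KM were derived through weighted Michaelis–Menten fits across concentrations.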

glucosamine-6-phosphate [2] = variants of: B1; assay: KM; higher = weaker cofactor use; RNA array
Method in brief: as §1

glucosamine-6-phosphate [3] = variants of: B1; assay: self-cleavage kobs at 10000 uM GlcN6P; higher = faster cleavage; RNA array
Method in brief: as §1

glucosamine-6-phosphate [4] = variants of: B1; assay: self-cleavage kobs at 40 uM GlcN6P; higher = faster cleavage; RNA array
Method in brief: as §1

glucosamine-6-phosphate [5] = variants of: B1; assay: self-cleavage kobs at 160 uM GlcN6P; higher = faster cleavage; RNA array
Method in brief: as §1

glucosamine-6-phosphate [6] = variants of: B1; assay: self-cleavage kobs at 640 uM GlcN6P; higher = faster cleavage; RNA array
Method in brief: as §1

glucosamine-6-phosphate [7] = variants of: B1; assay: self-cleavage kobs at 2500 uM GlcN6P; higher = faster cleavage; RNA array
Method in brief: as §1

Row | Variant | kcat (glucosamine-6-phosphate [1]) [s⁻¹] | KM (glucosamine-6-phosphate [2]) [µM] | self-cleavage kobs at 10000 uM GlcN6P (glucosamine-6-phosphate [3]) [s⁻¹] | self-cleavage kobs at 40 uM GlcN6P (glucosamine-6-phosphate [4]) [s⁻¹] | self-cleavage kobs at 160 uM GlcN6P (glucosamine-6-phosphate [5]) [s⁻¹] | self-cleavage kobs at 640 uM GlcN6P (glucosamine-6-phosphate [6]) [s⁻¹] | self-cleavage kobs at 2500 uM GlcN6P (glucosamine-6-phosphate [7]) [s⁻¹]
1 | AUAAAAGCGCCAGAACUACAGAAAUGUAGUGGCCGAGGAGGAGGUUUAUCGAAUUUUCGGCGGAUGCCUCCAAA [U31G A33C] | 3.39e-05 ± 1.6e-06 | 4180 ± 650 | 2.4e-05 ± 8.6e-06 | – | – | – | –
2 | AUAAAAGCGCCAGAACUACAGAAAUGUAGUUAACGAGGAGGAGGUUUAUCGAAUUUUCGGAGGAUGCCUCCAAA [G32A C61A] | < 1e-05 | – | – | – | – | – | –
3 | AUAAAAGCGCCAGAACUACAGAAAUGUAGUUUACGUGGAGGAGGUUUAUCGAAUUUUCGGCGGAUGCCUCCAAA [G32U A36U] | < 1e-05 | – | < 1e-05 | < 1e-05 | < 1e-05 | – | –
4 | AUAAAAGCGCCCGAAUUACAGAAAUGUAGUUGACGAGGAGGAGGUUUAUCGAAUUUUCGGCGGAUGCCUCCAAA [A12C C16U] | 0.0121 ± 0.005 | – | 0.016 ± 0.0022 | 0.000543 ± 4.7e-05 | 0.001 ± 0.00018 | 0.00435 ± 0.00065 | 0.0065 ± 0.0011
5 | AUAAAAGCGCCAGAACUACAGAAAUGUAGUUGACGAGGAGGAGGUUUAUCGAAUUUUCGGCGGAUCUCUCCAAA [G66C C67U] | 2.82e-05 ± 1.9e-06 | 1800 ± 520 | 2.37e-05 ± 7.3e-06 | – | – | – | –
6 | AUAAAAGCGCCAGAACUACAGAAAUGUAGUUGACGAGGAGGAGGUUAAUCGAAUUUUCGGCGGAGGCCUCCAAA [U47A U65G] | 0.00507 ± 0.0003 | 3540 ± 320 | 0.00369 ± 0.00037 | 5.62e-05 ± 9.4e-06 | 0.000236 ± 6.6e-05 | 0.000735 ± 0.00012 | 0.00229 ± 0.00035
7 | AUAAAAGCGCCAGAACUACAGAAAUGUAGUUGACGAGGAGGAGGUUUAUCGAAUUAUCGGCGGAUGCCUCGAAA [U56A C71G] | 0.00102 ± 0.00013 | 1010 ± 210 | 0.000952 ± 0.0001 | 5.19e-05 ± 8e-06 | 0.000119 ± 1.8e-05 | 0.000396 ± 4.5e-05 | 0.000715 ± 9.6e-05
8 | AUAAAAGCGCCAGAACUACAGAAAUGUAGUUGACGAGGAGGCGGUAUAUCGAAUUUUCGGCGGAUGCCUCCAAA [A42C U46A] | < 1e-05 | – | – | < 1e-05 | – | < 1e-05 | –
9 | AUAAAAGCGCCAGAACUACAGAAAUGUAGUUGACAAGGAGGAGGUUUAUCGAAUUUUCGGCGGAUGCCUCGAAA [G35A C71G] | < 1e-05 | – | – | – | < 1e-05 | < 1e-05 | –
